Test results from paper doi:10.1101/2022.05.13.491839 (bioRxiv, 2022).

Assays:
Test in all cases: liposome flotation assay
[1] = target: T1, VAP-A^His sL1 (human, UniProt Q9P0L0 8-132; Q9P0L0 165-230)
T1 chain: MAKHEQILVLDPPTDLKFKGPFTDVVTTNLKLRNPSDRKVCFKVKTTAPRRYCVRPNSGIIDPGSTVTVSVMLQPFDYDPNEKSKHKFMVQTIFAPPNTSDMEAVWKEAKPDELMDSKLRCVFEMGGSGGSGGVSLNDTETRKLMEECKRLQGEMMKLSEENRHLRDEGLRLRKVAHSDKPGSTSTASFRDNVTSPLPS

[2] = target: T2, VAP-A^His WT (human, UniProt Q9P0L0 8-230)
T2 sequence (looked up): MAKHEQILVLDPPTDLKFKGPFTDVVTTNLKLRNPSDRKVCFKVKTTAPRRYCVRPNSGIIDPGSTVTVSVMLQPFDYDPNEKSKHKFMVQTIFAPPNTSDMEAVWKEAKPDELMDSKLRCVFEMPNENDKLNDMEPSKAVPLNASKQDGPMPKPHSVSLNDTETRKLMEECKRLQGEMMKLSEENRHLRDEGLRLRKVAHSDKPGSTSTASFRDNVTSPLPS

[3] = target: T3, VAP-A^His sL1/2 (human, UniProt Q9P0L0 8-132; Q9P0L0 165-206)
T3 chain: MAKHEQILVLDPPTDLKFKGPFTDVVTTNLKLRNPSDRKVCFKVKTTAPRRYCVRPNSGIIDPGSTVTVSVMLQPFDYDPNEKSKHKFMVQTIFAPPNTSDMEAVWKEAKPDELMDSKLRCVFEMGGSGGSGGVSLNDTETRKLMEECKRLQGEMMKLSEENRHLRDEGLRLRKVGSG

[4] = target: T4, VAP-A^His sL2 (human, UniProt Q9P0L0 8-206)
T4 chain: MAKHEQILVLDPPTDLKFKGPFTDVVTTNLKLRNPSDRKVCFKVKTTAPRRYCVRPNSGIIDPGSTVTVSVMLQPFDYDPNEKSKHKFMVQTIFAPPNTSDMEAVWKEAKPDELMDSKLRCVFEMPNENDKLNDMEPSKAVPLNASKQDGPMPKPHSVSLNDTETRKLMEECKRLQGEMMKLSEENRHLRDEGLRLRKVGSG

binding result [1]: binds
binding result [2]: binds
binding result [3]: binds
binding result [4]: binds
Binder: WCSGKGDMSDEDDENEFFDAPEIITMPENLGH [FFAT peptide]
